# Reference: patent US20050272077
# B1: Flag epitope-tagged JNK1 (protein)
# chain: SRSKRDNNFYSVEIGDSTFTVLKRYQNLKPIGSGAQGIVCAAYDAILERNVAIKKLSRPFQNQTHAKRAYRELVLMKCVNHKNIIGLLNVFTPQKSLEEFQDVYIVMELMDANLCQVIQMELDHERMSYLLYQMLCGIKHLHSAGIIHRDLKPSNIVVKSDCTLKILDFGLARTAGTSFMMTPYVVTRYYRAPEVILGMGYKENVDLWSVGCIMGEMVCHKILFPGRDYIDQWNKVIEQLGTPCPEFMKKLQPTVRTYVENRPKYAGYSFEKLFPDVLFPADSEHNKLKASQARDLLSKMLVIDASKRISVDEALQHPYINVWYDPSEAEAPPPKIPDKQLDEREHTIEEWKELIYKEVMDLEERTKNGVIRGQPSPLAQVQQ
# B2: GST-MKK4 (protein)
# chain: MQGKRKALKLNFANPPFKSTARFTLNPNPTGVQNPHIERLRTHSIESSGKLKISPEQHWDFTAEDLKDLGEIGRGAYGSVNKMVHKPSGQIMAVKRIRSTVDEKEQKQLLMDLDVVMRSSDCPYIVQFYGALFREGDCWICMELMSTSFDKFYKYVYSVLDDVIPEEILGKITLATVKALNHLKENLKIIHRDIKPSNILLDRSGNIKLCDFGISGQLVDSIAKTRDAGCRPYMAPERIDPSASRQGYDVRSDVWSLGITLYELATGRFPYPKWNSVFDQLTQVVKGDPPQLSNSEEREFSPSFINFVNLCLTKDESKRPKYKELLKHPFILMYEERAVEVACYVCKILDQMPATPSSPMYVD
# B3: MKK6 (protein)
# chain: MSQSKGKKRNPGLKIPKEAFEQPQTSSTPPRDLDSKACISIGNQNFEVKADDLEPIMELGRGAYGVVEKMRHVPSGQIMAVKRIRATVNSQEQKRLLMDLDISMRTVDCPFTVTFYGALFREGDVWICMELMDTSLDKFYKQVIDKGQTIPEDILGKIAVSIVKALEHLHSKLSVIHRDVKPSNVLINALGQVKMCDFGISGYLVDSVAKTIDAGCKPYMAPERINPELNQKGYSVKSDIWSLGITMIELAILRFPYDSWGTPFQQLKQVVEEPSPQLPADKFSAEFVDFTSQCLKKNSKERPTYPELMQHPFFTLHESKGTDVASFVKLILGD
# B4: 55 kD JNK2 protein kinase (protein)
# chain: MSDSKCDSQFYSVQVADSTFTVLKRYQQLKPIGSGAQGIVCAAFDTVLGINVAVKKLSRPFQNQTHAKRAYRELVLLKCVNHKNIISLLNVFTPQKTLEEFQDVYLVMELMDANLCQVIHMELDHERMSYLLYQMLCGIKHLHSAGIIHRDLKPSNIVVKSDCTLKILDFGLARTACTNFMMTPYVVTRYYRAPEVILGMGYKENVDIWSVGCIMGELVKGCVIFQGTDHIDQWNKVIEQLGTPSAEFMKKLQPTVRNYVENRPKYPGIKFEELFPDWIFPSESERDKIKTSQARDLLSKMLVIDPDKRISVDEALRHPYITVWYDPAEAEAPPPQIYDAQLEEREHAIEEWKELIYKEVMDWEERSKNGVVKDQPSDAAVSSNATPSQSSSINDISSMSTEQTLASDTDSSLDASTGPLEGCR
# B5: GST-JNK1 (protein)
# chain: MSRSKRDNNFYSVEIGDSTFTVLKRYQNLKPIGSGAQGIVCAAYDAILERNVAIKKLSRPFQNQTHAKRAYRELVLMKCVNHKNIIGLLNVFTPQKSLEEFQDVYIVMELMDANLCQVIQMELDHERMSYLLYQMLCGIKHLHSAGIIHRDLKPSNIVVKSDCTLKILDFGLARTAGTSFMMTPYVVTRYYRAPEVILGMGYKENVDLWSVGCIMGEMVCHKILFPGRDYIDQWNKVIEQLGTPCPEFMKKLQPTVRTYVENRPKYAGYSFEKLFPDVLFPADSEHNKLKASQARDLLSKMLVIDASKRISVDEALQHPYINVWYDPSEAEAPPPKIPDKQLDEREHTIEEWKELIYKEVMDLEERTKNGVIRGQPSPLAQVQQ
# B6: JNK1 from UV-irradiated cells (protein)
# chain: MSRSKRDNNFYSVEIGDSTFTVLKRYQNLKPIGSGAQGIVCAAYDAILERNVAIKKLSRPFQNQTHAKRAYRELVLMKCVNHKNIIGLLNVFTPQKSLEEFQDVYIVMELMDANLCQVIQMELDHERMSYLLYQMLCGIKHLHSAGIIHRDLKPSNIVVKSDCTLKILDFGLARTAGTSFMMTPYVVTRYYRAPEVILGMGYKENVDLWSVGCIMGEMVCHKILFPGRDYIDQWNKVIEQLGTPCPEFMKKLQPTVRTYVENRPKYAGYSFEKLFPDVLFPADSEHNKLKASQARDLLSKMLVIDASKRISVDEALQHPYINVWYDPSEAEAPPPKIPDKQLDEREHTIEEWKELIYKEVMDLEERTKNGVIRGQPSPLAQVQQ
# Experiments:
# [1] = molecular target: T1, GST-ATF2 fusion protein (residues 40-109), P15336
# T1 chain: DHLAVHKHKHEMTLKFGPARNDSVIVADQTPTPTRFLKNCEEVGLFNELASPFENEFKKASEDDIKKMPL
# [2] = molecular target: T2, GST-ATF2 fusion protein (residues 1-505), P15336
# T2 chain: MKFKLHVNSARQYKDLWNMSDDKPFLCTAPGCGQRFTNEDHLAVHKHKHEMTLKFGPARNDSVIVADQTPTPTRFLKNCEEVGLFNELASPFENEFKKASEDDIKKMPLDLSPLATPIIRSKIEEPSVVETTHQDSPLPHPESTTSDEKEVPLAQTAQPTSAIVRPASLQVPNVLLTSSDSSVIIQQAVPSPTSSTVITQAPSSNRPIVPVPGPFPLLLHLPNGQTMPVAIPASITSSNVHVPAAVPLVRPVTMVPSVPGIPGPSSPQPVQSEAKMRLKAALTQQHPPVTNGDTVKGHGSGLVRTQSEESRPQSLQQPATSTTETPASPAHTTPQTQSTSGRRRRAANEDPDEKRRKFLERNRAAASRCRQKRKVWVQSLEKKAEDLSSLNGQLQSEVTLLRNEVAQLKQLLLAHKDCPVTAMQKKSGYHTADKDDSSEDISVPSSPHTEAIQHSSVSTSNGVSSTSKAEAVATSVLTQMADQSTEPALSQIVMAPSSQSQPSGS
# [3] = molecular target: T3, GST-ATF2 fusion protein (residues 1-349), P15336
# T3 chain: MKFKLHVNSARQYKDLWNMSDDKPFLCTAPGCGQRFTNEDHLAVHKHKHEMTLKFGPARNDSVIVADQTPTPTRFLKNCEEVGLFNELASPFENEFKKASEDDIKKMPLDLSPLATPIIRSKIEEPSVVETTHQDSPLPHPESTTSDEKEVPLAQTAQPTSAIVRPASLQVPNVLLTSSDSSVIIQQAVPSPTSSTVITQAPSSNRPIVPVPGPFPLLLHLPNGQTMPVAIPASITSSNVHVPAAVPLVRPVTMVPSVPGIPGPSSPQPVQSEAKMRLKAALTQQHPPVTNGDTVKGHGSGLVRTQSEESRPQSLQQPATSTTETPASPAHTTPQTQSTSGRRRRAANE
# [4] = molecular target: T4, GST-ATF2 fusion protein (residues 60-109), P15336
# T4 chain: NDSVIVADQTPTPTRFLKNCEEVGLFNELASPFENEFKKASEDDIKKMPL
# [5] = molecular target: GST-ATF2 fusion protein (residues 1-109, activation domain) [GST: P08515]
# [6] = molecular target: T5, GST-ATF2 fusion protein (residues 20-109), P15336
# T5 chain: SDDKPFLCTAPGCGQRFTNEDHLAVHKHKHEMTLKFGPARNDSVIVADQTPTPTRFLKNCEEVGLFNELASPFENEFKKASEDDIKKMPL
# [7] = molecular target: mutated GST-JNK1 (Ala^183, Phe^185), P45983
# [8] = molecular target: GST-JNK1, P45983
# [9] = molecular target: GST-p38 MAP kinase (wild-type, TGY), Q16539
# [10] = molecular target: GST-ERK2 [GST: P08515]
# [11] = molecular target: T6, GST-MKK4, P45985
# T6 chain: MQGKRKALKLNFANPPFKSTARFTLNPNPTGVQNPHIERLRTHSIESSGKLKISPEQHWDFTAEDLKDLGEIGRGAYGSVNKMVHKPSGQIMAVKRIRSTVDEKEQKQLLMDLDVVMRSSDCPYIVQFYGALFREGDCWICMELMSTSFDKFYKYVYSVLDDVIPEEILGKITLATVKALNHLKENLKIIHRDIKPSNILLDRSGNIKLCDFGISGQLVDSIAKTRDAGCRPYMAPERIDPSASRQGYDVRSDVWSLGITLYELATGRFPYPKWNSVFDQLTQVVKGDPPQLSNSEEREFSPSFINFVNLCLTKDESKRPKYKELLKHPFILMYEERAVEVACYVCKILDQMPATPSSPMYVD
# [12] = molecular target: T7, mutated ATF2 (Ala^69.71), P15336
# T7 chain: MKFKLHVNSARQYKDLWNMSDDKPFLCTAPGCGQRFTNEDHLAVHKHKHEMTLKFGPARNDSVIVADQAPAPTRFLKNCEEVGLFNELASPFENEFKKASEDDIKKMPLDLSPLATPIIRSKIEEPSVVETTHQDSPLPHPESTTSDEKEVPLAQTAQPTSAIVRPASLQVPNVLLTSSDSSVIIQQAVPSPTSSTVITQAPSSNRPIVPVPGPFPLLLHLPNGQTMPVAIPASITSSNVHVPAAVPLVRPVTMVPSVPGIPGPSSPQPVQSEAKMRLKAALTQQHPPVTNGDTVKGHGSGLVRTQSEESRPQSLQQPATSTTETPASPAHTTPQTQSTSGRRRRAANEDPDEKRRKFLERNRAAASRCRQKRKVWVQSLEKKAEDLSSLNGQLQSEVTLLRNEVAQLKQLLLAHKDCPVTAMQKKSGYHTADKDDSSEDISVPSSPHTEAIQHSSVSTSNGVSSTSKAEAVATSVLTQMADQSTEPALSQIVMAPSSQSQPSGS
# Sequence of GST-p38 MAP kinase (wild-type, TGY), Q16539 (Q16539 whole entry): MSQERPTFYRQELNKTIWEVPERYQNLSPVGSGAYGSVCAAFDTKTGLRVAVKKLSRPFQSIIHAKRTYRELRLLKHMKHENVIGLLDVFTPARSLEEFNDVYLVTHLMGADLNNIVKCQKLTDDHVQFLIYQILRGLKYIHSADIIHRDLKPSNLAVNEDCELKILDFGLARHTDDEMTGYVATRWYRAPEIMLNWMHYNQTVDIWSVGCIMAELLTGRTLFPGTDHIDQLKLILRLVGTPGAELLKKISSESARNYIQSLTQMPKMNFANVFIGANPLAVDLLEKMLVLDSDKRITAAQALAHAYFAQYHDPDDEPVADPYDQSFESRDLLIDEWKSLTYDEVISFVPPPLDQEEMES
# Sequence of GST-ERK2 [GST: P08515] (P08515 whole entry, looked up): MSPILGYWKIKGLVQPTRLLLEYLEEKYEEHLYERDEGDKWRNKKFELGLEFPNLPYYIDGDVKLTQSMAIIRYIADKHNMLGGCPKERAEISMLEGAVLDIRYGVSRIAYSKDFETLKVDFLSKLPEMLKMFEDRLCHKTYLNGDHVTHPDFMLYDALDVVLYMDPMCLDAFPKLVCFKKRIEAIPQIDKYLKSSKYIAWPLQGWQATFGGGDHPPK
protein,measurement,setting,value
B1,phosphorylation of the GST-ATF2 fusion protein (immunocomplex kinase assay),[1],"JNK1 phosphorylates GST-ATF2 fusion proteins containing residues 1-505, 1-349, 1-109, 20-109, and 40-109, but not 60-109"
same,phosphorylation of the GST-ATF2 fusion protein (immunocomplex kinase assay),[2],"JNK1 phosphorylates GST-ATF2 fusion proteins containing residues 1-505, 1-349, 1-109, 20-109, and 40-109, but not 60-109"
same,phosphorylation of the GST-ATF2 fusion protein (immunocomplex kinase assay),[3],"JNK1 phosphorylates GST-ATF2 fusion proteins containing residues 1-505, 1-349, 1-109, 20-109, and 40-109, but not 60-109"
same,phosphorylation of the GST-ATF2 fusion protein (immunocomplex kinase assay),[4],"JNK1 phosphorylates GST-ATF2 fusion proteins containing residues 1-505, 1-349, 1-109, 20-109, and 40-109, but not 60-109"
same,"phosphorylation of GST-ATF2 (residues 1 to 109) (immunocomplex kinase assay, autoradiography)",[5],"JNK1-transfected cells, but not mock-transfected cells, phosphorylated ATF2. JNK1 phosphorylation of ATF2 was greater in cells exposed to UV radiation"
same,phosphorylation of the GST-ATF2 fusion protein (immunocomplex kinase assay),[5],"JNK1 phosphorylates GST-ATF2 fusion proteins containing residues 1-505, 1-349, 1-109, 20-109, and 40-109, but not 60-109"
same,phosphorylation of the GST-ATF2 fusion protein (immunocomplex kinase assay),[6],"JNK1 phosphorylates GST-ATF2 fusion proteins containing residues 1-505, 1-349, 1-109, 20-109, and 40-109, but not 60-109"
B2,phosphorylation of ATF2 in a coupled kinase assay (activation of JNK1),[7],"MKK4 incubated with wild-type JNK1, but not mutated JNK1, resulted in increased phosphorylation of ATF2"
same,phosphorylation of ATF2 in a coupled kinase assay (activation of JNK1),[8],ATF2 was phosphorylated in the presence of MKK4 and wild-type JNK1
same,"phosphorylation of the substrate protein (in vitro kinase assay, [γ-32P]ATP)",[8],JNK1 and p38 were phosphorylated
same,"phosphorylation of the substrate protein (in vitro kinase assay, [γ-32P]ATP)",[9],JNK1 and p38 were phosphorylated
B3,phosphorylation of the substrate protein (in vitro kinase assay),[10],"shown to phosphorylate p38 MAP kinase on Thr^180 and Tyr^182, but not JNK1 or ERK2"
same,phosphorylation of the substrate protein (in vitro kinase assay),[8],"shown to phosphorylate p38 MAP kinase on Thr^180 and Tyr^182, but not JNK1 or ERK2"
same,phosphorylation of the substrate protein (in vitro kinase assay),[9],"shown to phosphorylate p38 MAP kinase on Thr^180 and Tyr^182, but not JNK1 or ERK2"
same,specific activity relative to MKK3,[9],The specific activity of MKK6 was approximately 300-fold greater than that of MKK3
B4,in-gel protein kinase assay with GST-ATF2 (residues 1-505) polymerized in the gel,[2],"46 kD and 55 kD protein kinases that phosphorylate ATF2 in extracts prepared from UV-irradiated cells. The 46 kD and 55 kD protein kinases were identified as JNK1 and JNK2, respectively"
B5,"phosphorylation of MKK4 (in vitro kinase assay, [γ-32P]ATP)",[11],as was MKK4 incubated with JNK1 and p38
B6,in-gel protein kinase assay with GST-ATF2 (residues 1-505) polymerized in the gel,[2],"46 kD and 55 kD protein kinases that phosphorylate ATF2 in extracts prepared from UV-irradiated cells. The 46 kD and 55 kD protein kinases were identified as JNK1 and JNK2, respectively"
same,phosphorylation of ATF2 by JNK1 (phosphopeptide mapping and mutational analysis),[12],Phosphorylation of mutated ATF2 was not observed
